In article PMC9461283:

Target: SARS-CoV-2 S receptor-binding domain (RBD) (SARS-CoV-2 (isolate Wuhan-Hu-1)) (UniProt P0DTC2)
Assay: SPR

cynomolgus macaque (Macaca fascicularis) ACE2 ectodomain (ectoACE2), N-terminal 367 aa (domain or fragment)
Kd: 69.2 nM

rhesus macaca (Macaca mulatta) ACE2 ectodomain (ectoACE2), N-terminal 367 aa (from UniProt F7AH40 1-367) (domain or fragment)
Kd: 68 nM
